The record followed here is paper PMC5963734 (Neuron, 2018).

No end group written: not given here.

The target of the test is full length calmodulin (recombinant, Xenopus cDNA), used with Ca2+ (Xenopus, UniProt P0DP33 1-149). The test is described as follows: fluorescence polarisation. (In fluorescence polarisation assays a small probe gives low polarisation when free and higher when bound to something large.)

As to fluorescein-MDCLCIVTTKKYR (cysteine pairing not given here) [fluorescein-labeled PSD-95 peptide 1-13], the binding result was “binds”.
